# How the values were obtained:
# Conditions in all cases: 20 nM; 72 h
# MCF10A [1] = experiment: percent viability (nuclei count relative to siNT); higher = more viable cells
# Description: (§1)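 After 72 h, cells were fixed and stained with Hoechst and anti-fibrillarin, and nucleoli per nucleus were counted with CellProfiler. Values are plate-adjusted percent effect for the one-nucleolus and 5+ nucleoli phenotypes, normalised to siNT (0%) and to the positive controls siNOL11 or siKIF11 (100%), as the mean of biological triplicates. Percent viability is the nuclei count relative to siNT.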
# MCF10A [2] = experiment: 5+ nucleoli phenotype percent effect (relative to siNT 0% and siKIF11 100%); higher = more cells with five or more nucleoli
# Description: as §1
# MCF10A [3] = experiment: one-nucleolus phenotype percent effect (relative to siNT 0% and siNOL11 100%); higher = more cells with one nucleolus (ribosome biogenesis inhibition)
# Description: as §1
Sequence,percent viability (MCF10A [1]),5+ nucleoli phenotype percent effect (MCF10A [2]),one-nucleolus phenotype percent effect (MCF10A [3])
AGUCAUUGGAGGGUUUGAGCAG [hsa-miR-616-3p],85.2%,-20%,10.7%
AGUGAAUGAUGGGUUCUGACC [hsa-miR-1257],25.9%,-35.8%,45.3%
AGUGCCUGAGGGAGUAAGAG [hsa-miR-550a-3-5p],79.3%,-17.5%,3.47%
AGUGCCUGAGGGAGUAAGAGCCC [hsa-miR-550a-5p],47.1%,12.6%,7.21%
AGUGCCUGCUAUGUGCCAGGCA [hsa-miR-1271-3p],39.3%,4.16%,-6.99%
AGUGGACCGAGGAAGGAAGGA [hsa-miR-4800-5p],44.8%,-9.53%,2.75%
AGUGGAUGAUGGAGACUCGGUAC [hsa-miR-3691-5p],13.1%,-12.7%,34.9%
AGUGGCAAAGUCUUUCCAUAU [hsa-miR-3688-5p],31.6%,-15.4%,16%
AGUGGCACAUGUUUGUUGUGAG [hsa-miR-891a-3p],32.1%,-11.2%,35%
AGUGGGAGGACAGGAGGCAGGU [hsa-miR-6778-5p],26.7%,-9.05%,-2.52%
AGUGGGAGGCCAGGGCACGGCA [hsa-miR-1233-1-5p],26.5%,-38.8%,24.3%
AGUGGGGAACCCUUCCAUGAGG [hsa-miR-491-5p],10.1%,-46.6%,47.1%
AGUGGGGUGGGACCCAGCUGUU [hsa-miR-6742-5p],21.8%,-35.4%,43.2%
AGUGGUUCUUAACAGUUCAACAGUU [hsa-miR-203a-5p],150%,60.5%,-32.6%
AGUUAAUGAAUCCUGGAAAGU [hsa-miR-569],90.6%,-15.9%,10.3%
AGUUAGGAUUAGGUCGUGGAA [hsa-miR-1258],37.3%,-19.1%,6.84%
AGUUCUUCAGUGGCAAGCUUUA [hsa-miR-22-5p],75.4%,24%,3.93%
AGUUGCCAGGGCUGCCUUUGGU [hsa-miR-6501-5p],47.2%,-26.4%,5.87%
AGUUGCCUUUUUGUUCCCAUGC [hsa-miR-4423-5p],44.9%,-0.303%,-22.1%
AGUUUGGGAUGGAGAGAGGAGA [hsa-miR-6740-5p],83.1%,24.1%,-20.1%
AGUUUUGCAGGUUUGCAUUUCA [hsa-miR-19b-2-5p],96.7%,-10.8%,21.2%
AGUUUUGCAUAGUUGCACUACA [hsa-miR-19a-5p],124%,35.3%,-20%
AUAAAGCUAGAUAACCGAAAGU [hsa-miR-9-3p],44.1%,-46.1%,48.4%
AUAACAUUGUAAAGCGCUUCUUUCG [hsa-miR-3143],68.7%,49%,-38.3%

Sequence,percent viability (MCF10A [1]),5+ nucleoli phenotype percent effect (MCF10A [2]),one-nucleolus phenotype percent effect (MCF10A [3])
AUAAGACGAACAAAAGGUUUGU [hsa-miR-208b],63%,3.95%,2.18%
AUAAGACGAGCAAAAAGCUUGU [hsa-miR-208a],100%,14.9%,-6.61%
AUAAUACAACCUGCUAAGUGCU [hsa-miR-374c-5p],45.3%,-36.9%,26.4%
AUAAUACAUGGUUAACCUCUUU [hsa-miR-655],118%,-21.2%,4.84%
AUACACAUACACGCAACACACAU [hsa-miR-466],38.7%,-1.51%,-17.2%
AUACAUGUCAGAUUGUAUGCC [hsa-miR-4666a-5p],52.7%,3.52%,-5.95%
AUACCCAUAGCUUAGCUCCCA [hsa-miR-5591-3p],16.2%,-19.5%,47%
AUACCUCAUCUAGAAUGCUGUA [hsa-miR-4777-3p],51.3%,-19.6%,0.874%
AUACUGUGAAUUUCACUGUCACA [hsa-miR-4693-5p],53.9%,-20.3%,2.95%
AUAGCAAUUGCUCUUUUGGAA [hsa-miR-4766-3p],38.1%,-28.9%,19.4%
AUAGCAGCAUAAGCCUGUCUC [hsa-miR-4524b-5p],21%,-6.19%,-0.0215%
AUAGCAGCAUGAACCUGUCUCA [hsa-miR-4524a-5p],24.9%,-12.6%,21.6%
AUAGGACUCAUAUAGUGCCAG [hsa-miR-3117-3p],35.4%,33%,-13.2%
AUAGGCACCAAAAAGCAACAA [hsa-miR-4423-3p],12.9%,-11.3%,0.708%
AUAGUCCGAGUAACGUCGGGGC [hsa-miR-6723-5p],54%,-28.9%,16.5%
AUAGUGGGAAGCUGGCAGAUUC [hsa-miR-4727-3p],16.6%,-30.8%,52.3%
AUAGUGGUUGUGAAUUUACCUU [hsa-miR-4460],33.9%,-22.1%,11.2%
AUAUAAUACAACCUGCUAAGUG [hsa-miR-374b-5p],103%,35.9%,-13.3%
AUAUACAGGGGGAGACUCUCAU [hsa-miR-1185-2-3p],25.8%,-11.3%,21.3%
AUAUACAGGGGGAGACUCUUAU [hsa-miR-1185-1-3p],20.3%,-12.6%,9.76%
AUAUACCUGUUCGGUCUCUUUA [hsa-miR-3144-3p],30%,-12.6%,-10.5%
AUAUGCCUGGCUAGCUCCUC [hsa-miR-4633-5p],31.4%,-31.2%,27.8%
AUAUGGGUUUACUAGUUGGU [hsa-miR-3115],25%,-8.18%,27.9%

# Source: the supplement of paper PMC10899765
